Measured values taken from article PMC7732827, “Autoregulation of yeast ribosomal proteins discovered by efficient search for feedback regulation”.

Target: Rpl1B-HIS (Saccharomyces cerevisiae, UniProt P0CX44 1-217)
Experiment: EMSA; 20 mM Mg2+; 400 nM RNA, 0.1-1 ug protein in 10 ul; 50 mM Tris-HCl pH 8.5, 350 mM KCl, 20 mM MgCl2, 0.1% NP-40, 10% glycerol, 30 min at 4 C; 7.5% Tris-glycine PAGE in the cold room
Details: protein: recombinant; tags: C-terminal His6 (HHHHHH); label: none (SYBR Green I stain); two hairpins (HP1, HP2), predicted

Sequence of Rpl1B-HIS (P0CX44 whole entry): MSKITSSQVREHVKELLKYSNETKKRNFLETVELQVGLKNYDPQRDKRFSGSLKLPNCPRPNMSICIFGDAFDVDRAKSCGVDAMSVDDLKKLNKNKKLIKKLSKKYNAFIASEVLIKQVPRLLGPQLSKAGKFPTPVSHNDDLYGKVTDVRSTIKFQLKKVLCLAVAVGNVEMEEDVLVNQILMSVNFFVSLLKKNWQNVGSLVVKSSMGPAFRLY

B1: RPL1B-UTR RNA, synthetic (structured_RNA)
RNA: AUAGAACUAGUCGCAAGCCUCACGGACCACCAAAUACUUUGGAAGACUAAUUACAUAUCAUAAA
  binding result: binds
